Source: patent publication US20190284293A1 (Bristol-Myers Squibb, published 2019)
Numbering of substitutions follows the chain as printed. Names and notes keep the numbering of the source.

T1: rhCD73 bound to his-tag magnet beads (human, UniProt P21589 27-547, limits assumed)
T1 sequence: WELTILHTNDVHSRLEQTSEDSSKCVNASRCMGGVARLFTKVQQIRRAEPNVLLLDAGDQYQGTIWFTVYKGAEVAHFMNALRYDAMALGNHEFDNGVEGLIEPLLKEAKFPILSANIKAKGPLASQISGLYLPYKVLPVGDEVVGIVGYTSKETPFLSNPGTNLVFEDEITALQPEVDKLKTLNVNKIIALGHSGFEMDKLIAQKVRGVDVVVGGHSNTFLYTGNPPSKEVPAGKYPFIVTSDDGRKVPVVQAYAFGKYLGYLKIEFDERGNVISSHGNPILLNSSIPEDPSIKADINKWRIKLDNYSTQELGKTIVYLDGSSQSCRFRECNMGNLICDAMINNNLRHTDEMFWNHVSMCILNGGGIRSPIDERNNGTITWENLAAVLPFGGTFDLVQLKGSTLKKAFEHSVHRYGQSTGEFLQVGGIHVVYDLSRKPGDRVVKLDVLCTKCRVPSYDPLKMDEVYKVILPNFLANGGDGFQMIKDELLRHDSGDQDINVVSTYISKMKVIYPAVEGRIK

T2: cyno CD73, Sino Biological Inc Cat#90192-C08H, bound to his-tag magnet beads (cynomolgus, UniProt P21589 27-547 (human entry))
T2 chain: T1 sequence with M199T, T350A, V466I

T3: human CD73 on cells (human, UniProt P21589 27-549)
T3 sequence: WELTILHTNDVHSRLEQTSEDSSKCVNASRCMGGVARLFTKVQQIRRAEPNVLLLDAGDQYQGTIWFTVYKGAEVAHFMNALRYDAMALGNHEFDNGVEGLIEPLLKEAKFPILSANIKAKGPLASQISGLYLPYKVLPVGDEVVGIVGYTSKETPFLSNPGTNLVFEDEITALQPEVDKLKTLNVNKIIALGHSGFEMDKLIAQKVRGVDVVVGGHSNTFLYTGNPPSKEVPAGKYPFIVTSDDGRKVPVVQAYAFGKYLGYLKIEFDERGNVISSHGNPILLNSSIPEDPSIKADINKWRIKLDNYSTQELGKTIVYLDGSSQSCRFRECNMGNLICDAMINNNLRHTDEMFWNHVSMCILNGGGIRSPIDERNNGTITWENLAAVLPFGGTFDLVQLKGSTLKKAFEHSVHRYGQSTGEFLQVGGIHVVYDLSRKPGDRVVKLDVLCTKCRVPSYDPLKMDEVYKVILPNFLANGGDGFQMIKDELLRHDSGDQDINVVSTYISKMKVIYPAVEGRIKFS

T4: cynomolgus CD73 on transfected CHO cells (cynomolgus, UniProt P21589 27-549 (human entry))
T4 construct: also called CHO-cynoCD73; CHO-Cynomolgus CD73 transfectants
T4 chain: T3 sequence with M199T, T350A, V466I

B1: CD73.10-IgG2-C219S-IgG1.1f (antibody)
heavy: QVQLVESGGGVVQPGRSLRLSCAASGFTFSNYGMHWVRQAPGKGLEWVAVIWYDESNKYYPDSVKGRFTISRDNSKNTLYLQMNSLRAEDTAVYYCARGGSSWYPDSFDIWGQGTMVTVSSASTKGPSVFPLAPCSRSTSESTAALGCLVKDYFPEPVTVSWNSGALTSGVHTFPAVLQSSGLYSLSSVVTVPSSNFGTQTYTCNVDHKPSNTKVDKTVERKSCVECPPCPAPPVAGPSVFLFPPKPKDTLMISRTPEVTCVVVDVSHEDPEVKFNWYVDGVEVHNAKTKPREEQYNSTYRVVSVLTVLHQDWLNGKEYKCKVSNKALPSSIEKTISKAKGQPREPQVYTLPPSREEMTKNQVSLTCLVKGFYPSDIAVEWESNGQPENNYKTTPPVLDSDGSFFLYSKLTVDKSRWQQGNVFSCSVMHEALHNHYTQKSLSLSPG
light: not shown
notes: also called CD73.10-IgG2CS-IgG1.1f; CD73.10-IgG2S-IgG1.1f
B2: CD73.10-IgG2-C219S (antibody)
heavy: B1 heavy with K274Q, Y296F, Y300F, L309V, A327G, S330A, S331P, A339T, V397M
light: not shown
notes: also called CD73.10-IgG2CS; CD73.10-IgG2S

Experiments:
[1] = biological target: T1, rhCD73 bound to his-tag magnet beads; test: cell-based or functional assay
[2] = biological target: T2, cyno CD73, Sino Biological Inc …; test: cell-based or functional assay
human CD73 on cells [3] = biological target: T3, human CD73 on cells; test: cell-based or functional assay
human CD73 on cells [4] = biological target: T3, human CD73 on cells; test: cell-based or functional assay; remark: listed apart in the source
human CD73 on cells [5] = biological target: T3, human CD73 on cells; test: flow cytometry, Calu6 cells
Experimental: (§1) Titration binding curves were produced with CD73 antibodies on Calu6 (CD73 endogenous expressors; human pulmonary adenocarcinoma cell line), DMS114 (CD73 negative; human small cell lung cancer cell line), CHO-cynoCD73 (cynoCD73-transfected) and CHO-K1 (cynoCD73 negative), cells using Alexa Fluor® 647 Goat Anti-Human IgG (H+L) as a secondary antibody, Invitrogen Cat#A-21445, using the following method: 100000 cells were plated in 100 uL PBS+2% FBS per well and blocked for 20 min. Using a U-bottom 96-deep well plate, volumes of antibody and PBS+2% FBS were combined as dictated by Table 12 below.
(§2) An 8-point serial dilution was performed by diluting a sixth of the volume (90 uL) into […], PBS+2% FBS. The cell plate was spun down for 5 minutes at 1500 rpm. 100 uL of diluted antibody was added per well of the plate. 100 uL PBS+2% FBS were added to all other wells. […] The plates were spun down at 1500 rpm for 5 min and washed in 200 uL PBS+2% FBS per well. The plates were washed again, resuspended in 200 uL 2% FBS in PBS per well and the samples were run.

[6] = biological target: T4, cynomolgus CD73 on transfected CHO cells; test: flow cytometry, CHO-cynoCD73 cells
Experimental: as §1, §2

human CD73 on cells [7] = biological target: T3, human CD73 on cells; test: binding titration on Calu6 cells, average of 2-6 experiments

| Binder | EC50 (nM), inhibition of bead-bound human CD73 enzymatic activity [1] [nM] | EC50 (nM), enzymatic inhibition of cyno CD73 (bead-bound) [2] [nM] | EC50 Calu6 inhibition (human CD73 on cells [3]) [nM] | EC50 (nM), high-content internalization assay, Calu6, 2 h (human CD73 on cells [4]) [nM] | Ymax, high-content internalization assay (percent of 100 nM 11F11) (human CD73 on cells [4]) [%] | EC50 (human CD73 on cells [5]) [nM] | EC50 [6] [nM] | EC50 (human CD73 on cells [7]) [nM] |
| --- | --- | --- | --- | --- | --- | --- | --- | --- |
| B1 | 4.84 | 9.94 | 0.77 | 0.87 | 99 | 0.85 | 1.27 | 0.85 |
| B2 | 7.54 | 8.78 | 0.84 | 0.67 | 99 | 0.85 | 1.24 | 0.85 |
